Results reported in PMC3884763.

Molecular target: Cavernularia obesa green fluorescent protein (CoGFP), wild-type, with a histidine tag at the N-terminus (Cavernularia obesa)
Assay: SEC

## Cavernularia obesa green fluorescent protein (CoGFP), wild-type, with a histidine tag at the N-terminus (natural protein)
  stoichiometry N: 2
